The record followed here is article PMC2660430, “Identification of Proteins Targeted by the Thioredoxin Superfamily in Plasmodium falciparum” (PLoS Pathogens, 2009).

In test [1] the target is T1, PfOAT (recombinant ornithine aminotransferase) (P. falciparum strain 3D7, UniProt Q6LFH8 1-414).
T1 construct: Ornithine aminotransferase, P. falciparum strain 3D7, Swiss-Prot Q6LFH8, PlasmoDB PFF0435w; gene amplified from a gametocyte cDNA library with primers from the start codon (NcoI) to the last codon (XhoI); Amine-coupled to a CM5 chip and oxidized on the chip with 0.5 mM DTNB before each analyte; source: E. coli BL 21 (pET28a), purified (Ni-NTA)
T1 sequence (looked up): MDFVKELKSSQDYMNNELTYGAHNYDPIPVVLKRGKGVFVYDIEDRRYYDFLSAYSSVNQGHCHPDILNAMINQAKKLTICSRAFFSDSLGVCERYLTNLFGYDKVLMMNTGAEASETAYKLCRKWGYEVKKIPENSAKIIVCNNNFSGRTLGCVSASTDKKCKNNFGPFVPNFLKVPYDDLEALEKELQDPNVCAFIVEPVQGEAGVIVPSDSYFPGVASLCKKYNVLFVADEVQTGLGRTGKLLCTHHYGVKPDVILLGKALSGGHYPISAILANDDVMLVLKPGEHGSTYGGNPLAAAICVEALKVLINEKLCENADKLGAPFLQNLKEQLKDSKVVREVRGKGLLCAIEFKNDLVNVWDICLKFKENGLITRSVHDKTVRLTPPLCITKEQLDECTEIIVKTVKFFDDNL
Kind of test: SPR; BIAcore X; OAT amine-coupled to CM5 chip, oxidized with 0.5 mM DTNB; analyte 10 µM in HBS buffer (10 mM HEPES, 150 mM NaCl, 3.4 mM EDTA, 0.005% Nonidet P-40, pH 7.4), 25°C, 10 µl/min; elution with 2 mM DTT; FC2-FC1. To be noted: both partners purified. On the technique in general: SPR reads the build-up and loss of mass on a sensor chip optically.

The target in the test “PfSAHH (recombinant …)” is T2, PfSAHH (recombinant S-adenosyl-L-homocysteine hydrolase) (P. falciparum strain 3D7, UniProt P50250 1-479).
T2 construct: S-adenosyl-L-homocysteine hydrolase, P. falciparum strain 3D7, Swiss-Prot Q7K6A6, PlasmoDB PFE1050w; gene amplified from a gametocyte cDNA library with primers from the start codon (NcoI) to the last codon (XhoI); Amine-coupled to a CM5 chip and oxidized on the chip with 0.5 mM DTNB before each analyte; also called oxidized SAHH; source: E. coli BL 21 (pET28a), purified (Ni-NTA)
T2 sequence (P50250 whole entry): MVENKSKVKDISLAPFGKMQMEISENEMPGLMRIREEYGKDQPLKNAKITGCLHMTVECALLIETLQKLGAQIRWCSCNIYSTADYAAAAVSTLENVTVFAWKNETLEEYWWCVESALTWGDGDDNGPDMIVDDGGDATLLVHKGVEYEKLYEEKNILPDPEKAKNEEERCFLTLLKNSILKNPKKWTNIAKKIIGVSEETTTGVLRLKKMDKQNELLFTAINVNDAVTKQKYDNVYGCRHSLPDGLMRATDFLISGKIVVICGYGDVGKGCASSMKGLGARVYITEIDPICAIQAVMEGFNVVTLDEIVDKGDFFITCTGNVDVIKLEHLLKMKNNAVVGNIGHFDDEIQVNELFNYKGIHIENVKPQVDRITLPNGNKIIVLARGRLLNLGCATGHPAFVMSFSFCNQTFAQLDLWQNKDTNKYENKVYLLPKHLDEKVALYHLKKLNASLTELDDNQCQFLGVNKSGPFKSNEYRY
Nature of the test: SPR; BIAcore X; SAHH amine-coupled to CM5 chip, oxidized with 0.5 mM DTNB; analyte 10 µM in HBS buffer (10 mM HEPES, 150 mM NaCl, 3.4 mM EDTA, 0.005% Nonidet P-40, pH 7.4), 25°C, 10 µl/min; elution with 2 mM DTT; FC2-FC1. To be noted: both partners purified.

B1: PfTrx1^C33S (natural protein)
chain: MVKIVTSQAEFDSIISQNELVIVDFFAEWCGPSKRIAPFYEECSKTYTKMVFIKVDVDEVSEVTEKENITSMPTFKVYKNGSSVDTLLGANDSALKQLIEKYAA
notes: Thioredoxin 1 (PfTrx1), P. falciparum, PlasmoDB PF14_0545; Lacks the resolving cysteine; traps targets as a mixed disulfide through Cys 30; also called Trx^C33S; TrxC33S; source: E. coli M15 (pQE30), purified (Ni-NTA)
For B1, the binding result (in test [1]; with PfSAHH (recombinant …)) was “binds” throughout.

B2: Plrx (wild type plasmoredoxin, recombinant) (natural protein, P. falciparum, UniProt Q8I224 1-179, looked up)
chain: MACQVDNPPKTYPNDKTAEYEKYANYMNYLYYYQNNELKKIDSSYFKDKYLGLFFGASWCKYCVTFIDSLNIFKKNFPNVEIIYIPFDRTYQEYQSFLKNTNFYALPFDNYLYICKKYQIKNLPSFMLITPNNNILVKDAAQLIKTDEYINNLKSLIKNYIIHPKTFQFNNRFFDLFRN
notes: Plasmoredoxin (Plrx), P. falciparum, Swiss-Prot Q8I224, PlasmoDB PFC0166w; also called wild type Plrx; PfPlrx; source: E. coli M15 (pQE30), purified (Ni-NTA)
Take B2: the binding result with PfSAHH (recombinant …) is given as “binds”.
